# How the values were obtained:
# [1] = tested on: Ac-Agp57-Tat(47-57)-NH2 (HIV-1?); test: EMSA; settings: with 10 ug/mL poly(dI-dC); unit inferred, inferred nM from comparison with 67 ± 19
# [2] = tested on: AgbTat (all six Arg replaced by Agb) (HIV-1?); test: EMSA; settings: apparent; with 10 ug/mL poly(dI-dC); 50 mM Tris-HCl pH 7.4, 50 mM KCl
# [3] = tested on: AghTat (all six Arg replaced by Agh) (HIV-1?); test: EMSA; settings: apparent; with 10 ug/mL poly(dI-dC); 50 mM Tris-HCl pH 7.4, 50 mM KCl
# [4] = tested on: ArgTat (Tat(47-57), Tat-Arg) (HIV-1?); test: EMSA
# [5] = tested on: Tat-Cit49 (HIV-1?); test: EMSA; settings: with 10 ug/mL poly(dI-dC), 25 C
# [6] = tested on: Tat-Cit52 (HIV-1?); test: EMSA; settings: with 10 ug/mL poly(dI-dC), 25 C
# [7] = tested on: Tat-Cit53 (HIV-1?); test: EMSA; settings: with 10 ug/mL poly(dI-dC), 25 C
# [8] = tested on: Tat-Cit55 (HIV-1?); test: EMSA; settings: with 10 ug/mL poly(dI-dC), 25 C
# [9] = tested on: Tat-Cit56 (HIV-1?); test: EMSA; settings: with 10 ug/mL poly(dI-dC), 25 C
# [10] = tested on: Tat-Cit57 (HIV-1?); test: EMSA; settings: with 10 ug/mL poly(dI-dC), 25 C
# [11] = tested on: AgbTat (all six Arg replaced by Agb) (HIV-1?); test: FP; settings: apparent; 1:1 fit; 50 mM Tris-HCl pH 7.4, 20 mM KCl, 0.02% Tween-20, room temperature
# [12] = tested on: AghTat (all six Arg replaced by Agh) (HIV-1?); test: FP; settings: apparent; 1:1 fit; 50 mM Tris-HCl pH 7.4, 20 mM KCl, 0.02% Tween-20, room temperature
# [13] = tested on: ArgTat (Tat(47-57), Tat-Arg) (HIV-1?); test: FP; settings: apparent; 1:1 fit; 50 mM Tris-HCl pH 7.4, 20 mM KCl, 0.02% Tween-20, room temperature, 25 nM RNA
# [14] = tested on: Tat-Cit49 (HIV-1?); test: FP; settings: 50 mM Tris-HCl pH 7.4, 20 mM KCl, 0.02% Tween-20, room temperature
# [15] = tested on: Tat-Cit52 (HIV-1?); test: FP; settings: 50 mM Tris-HCl pH 7.4, 20 mM KCl, 0.02% Tween-20, room temperature
# [16] = tested on: Tat-Cit53 (HIV-1?); test: FP; settings: 50 mM Tris-HCl pH 7.4, 20 mM KCl, 0.02% Tween-20, room temperature
# [17] = tested on: Tat-Cit55 (HIV-1?); test: FP; settings: 50 mM Tris-HCl pH 7.4, 20 mM KCl, 0.02% Tween-20, room temperature
# [18] = tested on: Tat-Cit56 (HIV-1?); test: FP; settings: 50 mM Tris-HCl pH 7.4, 20 mM KCl, 0.02% Tween-20, room temperature
# [19] = tested on: Tat-Cit57 (HIV-1?); test: FP; settings: 50 mM Tris-HCl pH 7.4, 20 mM KCl, 0.02% Tween-20, room temperature
substance,measurement,setting,value
HIV TAR RNA (F-TAR-RNA),Kd,[1],56 nM
same,Kd,[2],31 nM
same,Kd,[3],450 nM
same,Kd,[4],67 nM
same,Kd,[5],138 nM
same,Kd,[6],235 nM
same,Kd,[7],344 nM
same,Kd,[8],279 nM
same,Kd,[9],164 nM
same,Kd,[10],146 nM
same,Kd,[11],32 nM
same,Kd,[12],36 nM
same,Kd,[13],25 nM
same,Kd,[14],94 nM
same,Kd,[15],116 nM
same,Kd,[16],102 nM
same,Kd,[17],99 nM
same,Kd,[18],55 nM
same,Kd,[19],49 nM

# Source: patent publication US20130109618
